The results in this text go back to patent US20250352611A1, “METHODS FOR TREATING CATARACTS USING POLYPEPTIDES” (REJUKON BIOPHARM INC., priority 2022, published 2025).

One assay addresses T1, G3BP1 (Mus musculus, UniProt P97855).
T1 construct: Genes of full-length mouse G3BP1, G3BP1-eGFP; thrombin protease cleavage site (C); His6 (C); made in house; host or cells: Escherichia coli rosetta (DE3)
The experiment in a line: G3BP1 turbidity assay (OD395 nm). Type of assay: biochemical. Conditions: G3BP1 30 μM, ratio range 0.75 to 25, room temperature, 10 minutes. The procedure: The turbidity of G3BP1 (30 μM) in the presence of various concentrations of Champ-E, Champ-D, Champ-K, or Champ-Q was measured at a wavelength of 395 nm. Briefly, G3BP1 protein ([…]) and polypeptides Champ-E (RJK001), Champ-D (RJK002), Champ-K (RJK012) and Champ-Q (RJK005) were mixed well in a ratio range of 0.75 to 25 at room temperature for 10 minutes prior to turbidity assays. Absorbance at 395 nm (OD395 nm) was monitored at room temperature using Nanodrop ONE (Thermo Fisher Scientific, Inc.). […] The turbidity level reflects the degree of phase separation.
Briefly, the G3BP1 protein and the above-mentioned peptides were mixed at room temperature for 10 minutes prior to turbidity assays. 30 μM G3BP1 and peptide were mixed well in a ratio range of 0.75 to 25 before test. Absorbance at 395 nm (OD395 nm) was monitored at room temperature using Nanodrop ONE (Thermo Fisher Scientific, Inc.).
We followed the Turbidity Assays experiment as previously reported. Briefly, G3BP1 turbidity analysis were at room temperature and γD-crystallin protein was at 4° C. Proteins and Champ-E(RJK001), Champ-K, Champ-D or mutants are mixed at room temperature for 10 minutes prior to turbidity assays. 20 μM G3BP1 and 50 mg/ml(2.5 mM) γD-crystallin and peptide were mixed well in a ratio range of 0.75 to 25 before test. Absorbance at 395 nm (OD395 nm) was monitored at room temperature using Nanodrop ONE (Thermo Fisher Scientific, Inc.).

The next assay concerns the target T2, γD-crystallin (Homo sapiens, UniProt P07320).
T2 construct: Wild-type human full-length γD-crystallin gene were inserted into pET14b vectors; made in house; host or cells: E. coli BL21 (DE3)
T2 sequence (P07320 1-174): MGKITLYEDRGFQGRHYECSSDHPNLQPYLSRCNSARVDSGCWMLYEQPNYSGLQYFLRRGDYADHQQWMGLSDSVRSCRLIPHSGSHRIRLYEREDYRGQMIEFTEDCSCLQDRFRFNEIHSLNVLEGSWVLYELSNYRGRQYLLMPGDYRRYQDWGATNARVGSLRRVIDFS
The experiment in a line: γD-crystallin turbidity assay (OD395 nm) at 4° C. Type of assay: biochemical. The settings on record: γD-crystallin 50 mg/ml, RJK001 0-500 uM, 5 min. As to the method: The purified γD-crystallin was then dissolved in protein solubilization buffer to a final concentration of 50 mg/ml, Place γD-crystallin at 4° C. for 20 minutes to form a stable biphasic phase, add different concentration of the short peptide RJK001 in Sul γD-crystallin in a volume ratio of 1:1, final concentration of RJK001 from low to high is 0 uM, 20 uM, 50 uM, 100 uM, 150 uM, 200 uM, 250 uM, 300 uM and 500 uM, Use a 10 ul pipette tip to mix them well, then place them at 4° C. for 5 min, absorbance at 395 nm (OD395 nm) was monitored at 4° C. using Nanodrop ONE (Thermo Fisher Scientific, Inc.). […] The turbidity level reflects the degree of phase separation.
For γD-crystallin, γD-crystallin was purified in vitro, then were dissolved in protein solubilization buffer (150 mM NaCl, 50 mM tris-HCl, PH 7.5) to a final concentration of 50 mg/ml, Place γD-crystallin at 4° C. for 20 minutes to induce phase separation.
We followed the Turbidity Assays experiment as previously reported. Briefly, G3BP1 turbidity analysis were at room temperature and γD-crystallin protein was at 4° C. Proteins and Champ-E(RJK001), Champ-K, Champ-D or mutants are mixed at room temperature for 10 minutes prior to turbidity assays. […] Absorbance at 395 nm (OD395 nm) was monitored at room temperature using Nanodrop ONE (Thermo Fisher Scientific, Inc.).

The subject of assay [1] is crystallin proteins of the lens from cataract patients. The experiment in a line: Soluble crystallin in cataract lens grinding fluid by western blot (anti-βB1 crystallin). Set-up: species or system human. Conditions: 20 ul 2.5 mM RJK001 in 2 ul grinding fluid, RT 10 min. As to the method:
Quantitative analysis was performed using densitometry of crystallin proteins by western blot analysis of the supernatant or insoluble fraction of cell lysates.
Quantitative analysis was performed using densitometry of crystallin proteins by western blot analysis of the supernatant or insoluble fraction of lens lysates. Collect one intact eye lenses from cataract patients. Put it in 2 ml Eppendorf tube containing 700 ul protein solubilization buffer, Grind the complete lens at 4° C., 30s once for 3 times with Electric grinder to obtain 1 ml grinding fluid, add 20 ul 2.5 mM RJK001 in 2 ul grinding fluid as the experimental group, add 20 ul protein dissolving solution in 2 ul grinding fluid as a control, place it at RT for 10 min, centrifuge at 13000 rpm and take the supernatant for western blotting, After blocking with 5% milk, membrane were incubated with anti-βB1 crystallin (Santacruz, sc-48335, 1:3000) overnight at 4° C., Membrane were incubated with secondary antibodies for 1 h at room temperature, then the blots were detected by the enhanced chemiluminescence.
C-terminal fusion cell-penetrating peptide RJK001 and N-terminal fusion cell-penetrating peptide RJK012 were purified in vitro and added into SH-SY5Y cell. Cells were harvested at 1 h, 4 h, 8 h and 24 h respectively and were washed with PBS. Total proteins were extracted from SH-SY5Y cells with lysis buffer. […]
On the technique in general: In western blotting, separated proteins are transferred to a membrane and probed.

T1 sequence (P97855 whole entry): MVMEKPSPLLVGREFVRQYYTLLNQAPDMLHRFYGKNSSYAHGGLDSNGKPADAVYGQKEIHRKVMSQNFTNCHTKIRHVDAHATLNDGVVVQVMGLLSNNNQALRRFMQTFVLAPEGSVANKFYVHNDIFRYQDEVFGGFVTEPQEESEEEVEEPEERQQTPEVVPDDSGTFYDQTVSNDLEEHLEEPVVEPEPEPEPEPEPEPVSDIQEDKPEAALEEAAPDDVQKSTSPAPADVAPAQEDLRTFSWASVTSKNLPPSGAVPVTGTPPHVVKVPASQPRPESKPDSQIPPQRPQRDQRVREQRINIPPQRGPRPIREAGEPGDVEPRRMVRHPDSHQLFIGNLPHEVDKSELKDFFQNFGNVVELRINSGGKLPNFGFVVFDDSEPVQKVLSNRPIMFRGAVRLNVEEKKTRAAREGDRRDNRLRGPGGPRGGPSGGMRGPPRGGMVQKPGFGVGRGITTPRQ

Regarding “TEPQEESEEEVEEPEERQQTPEVVPDDSGTFYDQTVSNDLE [RJK001, polypeptide with hydrophilic and hydrophobic segment, expressed in E. coli]”, the “turbidity of G3BP1 (OD395 nm)” value with G3BP1 is given as “reduced the turbidity in a concentration dependent manner”. For the same sequence, in the assay with γD-crystallin, the “turbidity of γD-crystallin (OD395 nm)” value is “reduced the turbidity of γD-crystallin in a concentration dependent manner”. In addition, in assay [1], the “solubility of crystallin proteins of the lens (supernatant western blot)” value is recorded as “could improve the solubility of crystallin proteins”.
